Measurements published in patent US8163734B2, “Use of a mast cell activation or degranulation blocking agent in the manufacture of a medicament for the treatment of a patient subjected to thrombolyses” (priority 2004, dated 2012).
“Also recorded” adds a separate entry of the source.

Tests used:
[1] = tested on: rat peritoneal mast cells; test: Degranulation of rat peritoneal mast cells ex vivo; type: cell-based
[2] = tested on: middle cerebral artery occlusion (MCAO) in rats; test: 90 min middle cerebral artery occlusion with r-TPA 10 mg/kg infusion; brains dissected 4.5 h after reperfusion (Example 2); type: in vivo, rat
Procedure: Rats were given 10 mg/kg of r-TPA, which is considered equivalent to the typical dose given to humans in thrombolysis in stroke and myocardial infarction. Two timings of r-TPA were used to investigate in rat brain the hemorrhagic conversion of infarction, the single most serious complication and hazard in clinical thrombolytic therapy. The group termed r-TPA+saline received 1-hour infusiuon of r-TPA starting 5 minutes (10% as bolus) prior to reperfusion after 90 min of middle cerebral artery occlusion (MCAO), whereas the group saline+r-TPA received r-TPA starting 1 hour after the reperfusion after 90 min of MCAO. […] Brains were dissected at 4.5 hours after reperfusion. Areas of hemorrhage were measured by microscopical image analysis on six histological sections cut through the hemispheres and added together (cf. FIG. 3)
The polymorphonuclear leukocytes (neutrophils, shown in bars, left Y-axis, of FIG. 4) were calculated on the section encompassing the basal ganglia, infarct core and penumbra.
They were also treated with 10 mg/kg of r-TPA in a 1-hour infusion starting […] (10% as bolus) before reperfusion, a dose equivalent to that used clinically in thrombolysis of human stroke and myocardial infarction. Brains were dissected at 4.5 hours after reperfusion. The amount of brain edema was measured by quantitating the areas of hemispheres on histological sections with microscopical image analysis.
In the lower panel, the total area of hemorrhagic conversion was quantitated in six sections cut through the hemispheres.

[3] = tested on: spontaneous intraventricular bleedings; conditions: in vivo; cited from earlier work

Substance: r-TPA: alteplase (recombinant tissue plasminogen activator), a serine protease leading to plasmin formation
- degranulation of rat peritoneal mast cells [1]: degranulated
- neutrophil density ([2]; both r-TPA groups compared to sham-operated rats): significantly increased
- hemorrhage formation in rat brain ([2]; r-TPA 10 mg/kg, started 5 min before or 1 hour after reperfusion, vs sham operated or saline-treated controls): substantial hemorrhage formation; also recorded: significant hemorrhage formation
- increase in total number of neutrophils in the tissue, ischemic hemisphere ([2]; r-TPA infusion): up to 3 fold
- increase in total number of neutrophils in the tissue, non-infarcted hemisphere ([2]; r-TPA infusion): up to 5 fold
- degranulation of cells consistent with mast cell morphology, non-ischemic hemisphere ([2]; r-TPA infusion 5 minutes before reperfusion, 90 minute ischemia): up to 60%
- degranulation of cells consistent with mast cell morphology, ischemic hemisphere ([2]; r-TPA infusion 5 minutes before reperfusion, 90 minute ischemia, up to 50% without r-TPA): up to 70%
- rates of secondary brain hemorrhages [3]: more than doubles
